{"source": "paper PMC11134845", "target": "HSV-2G gB ectodomain (recombinant glycoprotein B of Herpes simplex virus 2 strain G, aa 22-724) (Herpes simplex virus 2 (strain G))", "test": "cryo-EM structure", "data": [{"substance": "HSV-2G gB ectodomain (recombinant glycoprotein B of Herpes simplex virus 2 strain G, aa 22-724) (domain or fragment)", "values": [{"measurement": "stoichiometry N", "value": 3}]}]}
